Tests used:
[1] = Decomposition of PEG-DTB-lysozyme conjugates in cysteine solution, HPLC; type: in vitro ADME; details: 0.6 mM cysteine, room temperature, pH 7.4, HPLC
Method: (§1) Conjugates of PEG-DTB-lysozyme were prepared as described in Example 1A. The conjugates (100 μg/mL=0.066 mM) were incubated in 0.6 mM cysteine or with 4% BSA at room temperature (22-24° C.), in 10 mM phosphate buffer pH 7.4 containing 2 mM EDTA. Aliquots were taken at various time points, reactions were stopped with 20 mM iodoacetamide, and stored at 2-8° C. until analysis.
For the conjugates incubated with cysteine, analysis of the aliquots was as done follows. The samples were diluted 1/10 in 10 mM NaPO4 pH 7.4 and analyzed on a carboxymethyl (CM) cation exchanger column.
(§2) HPLC was performed with the following conditions: Column: TOSOH TSK CM-5PW 10 micron (7.5 mm×7.5 cm); Mobile phase: (A) 10 mM NaPO4 pH 7.4 and (B) 500 mM NaCl in 10 mM NaPO4 pH 7.4; Gradient: 5 min 100% A, 20 min 0% B to 100% B; Flow rate: 1 mL/min; Fluorescence detector: λex 295 nm, λem 360 nm (slit 30 nm); and injection volume, 100 μL.

bovine serum albumin = target: T1, bovine serum albumin (Bos taurus, UniProt P02769); assay: Decomposition of PEG-DTB-lysozyme conjugates in 4% BSA solution, HPLC; type: in vitro ADME; details: room temperature, pH 7.4, HPLC after Q spin column
T1 construct: purchased Proliant (Ankeny, IA)
T1 sequence (P02769 25-607): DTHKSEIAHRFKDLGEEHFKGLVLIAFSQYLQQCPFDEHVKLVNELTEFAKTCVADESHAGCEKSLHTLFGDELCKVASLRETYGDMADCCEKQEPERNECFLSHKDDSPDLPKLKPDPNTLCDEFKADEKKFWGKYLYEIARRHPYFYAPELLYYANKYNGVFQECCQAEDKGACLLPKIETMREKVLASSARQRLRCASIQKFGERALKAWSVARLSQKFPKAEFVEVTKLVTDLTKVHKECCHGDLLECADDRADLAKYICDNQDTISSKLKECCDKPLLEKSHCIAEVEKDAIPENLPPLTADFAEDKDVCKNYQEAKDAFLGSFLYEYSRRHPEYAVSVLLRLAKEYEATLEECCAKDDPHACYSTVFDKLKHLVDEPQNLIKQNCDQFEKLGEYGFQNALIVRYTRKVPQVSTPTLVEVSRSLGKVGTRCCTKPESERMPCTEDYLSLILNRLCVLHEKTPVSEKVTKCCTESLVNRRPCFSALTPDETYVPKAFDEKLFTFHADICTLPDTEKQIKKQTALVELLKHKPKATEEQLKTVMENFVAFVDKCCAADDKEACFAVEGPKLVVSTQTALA
Method: as §1
For the conjugates incubated with BSA, analysis of the samples was done by diluting the samples 1/10 in 10 mM PO4 pH 7.4, passing through Q spin columns (Vivascience) in order to trap the albumin and any of its related products, and then analyzing on the same CM column.
as §2

Micrococcus luteus = Micrococcus luteus turbidity assay of active lysozyme after cleavage of the conjugate; type: biochemical
Method: A Micrococcus luteus turbidity assay was used to measure the amount of active lysozyme regenerated after cleavage of the conjugate.
At various time points, aliquots from the incubation vials were added to iodoacetamide to a final concentration of 20 mM, in order to stop the cleavage reaction. Samples were stored at 2-8° C. prior to analysis.
Micrococcus luteus stock solution was prepared at 0.3 mg/mL in 100 mM KPO4 pH 7. Lysozyme standards solutions were prepared at 1, 2, 4, 6, 8, and 10 μg/mL in PBS and a lysozyme standard curve was constructed (not shown). The samples from the cleavage reactions were diluted 1/10 in PBS. For the assay, 50 μL of standard, sample, or control were added per well to 96-well microtiter plates. To each well, 200 μL of Micrococcus luteus were added, and without delay, plates were read at 450 nm at 25° C. in a plate reader of a period of 10 min, in 30 second reading intervals.
The slopes (ΔA/min) were calculated for the first 5 minutes of the reading, and the corresponding lysozyme concentrations were extrapolated from the lysozyme standard curve.

[2] = Pharmacokinetic profile in rats dosed intravenously with 125I-labeled lysozyme or its PEG conjugates; type: in vivo, rat; details: intravenous
Method: Lysozyme (66 mg in […] in 0.1 M sodium phosphate buffer pH 7.3) was mixed with 605 μCi of Na^125I (ICN Biomedicals, Irvine, Calif.), in Iodo-Gen® coated tube (Pierce Chemical Company, Rockford, Ill.), and allowed to react for 1 hour at room temperature with 20 min intervals mixing. The iodination reaction was stopped by removing the free ^125I on a Sephadex G-25F gel filtration column (17 mL), and collecting the ^125I-lysozyme, which was then reacted with either mPEG-DTB-NPC and mPEG-NPC, and purified by cation exchange chromatography as described above.
Male Sprague-Dawley rats (250-330 g each, 3 animals per formulation per experiment) were dosed either by intravenous (via a lateral tail vein) or by subcutaneous (dorsally above the right rear leg) with ^125I labeled lysozyme or its PEG conjugates (0.35 mL, 0.4 mg protein/mL, 4.6×10^6 cpm/mL). Blood samples (0.4 mL) were collected via the retro-orbital sinus. All injections blood collections were performed while the animals were under inhaled anesthesia (isoflurane/O2). Samples were collected on heparin into polypropylene tubes and stored on ice for no longer than one hour before being pipetted in triplicate (0.100 mL) into fresh polypropylene tubes. Blood samples were collected at the following times after dosing (no single rat had blood collected at all of the following times): 30 sec, 15 min, 30 min and 1, 2, 3, 4, 6, 8, 24, 48, 72, 96, 120 and 168 hours post-dose. Note that the last 4 time points were added for the longer subcutaneous experiments. The samples were then counted for ^125I in a Packard™ 5000 gamma counter. The cpm counts were converted to concentration according to the specific activity of the samples.

human serum albumin = human serum albumin (Homo sapiens, UniProt P02768); assay: Incubation of Epo conjugates with human serum albumin, SDS-PAGE and anti-HSA immunoblot; type: in vitro ADME; details: 0.05% HSA, 21 hours at 37° C., no small molecule thiols
Method: mPEG-DTB-Epo (prepared as described above), mPEG-Epo, or Epo (0.2 mg/mL) was incubated with 0.05% human serum albumin (HSA) in 100 mM HEPES, 2 mM EDTA, pH 7.5 buffer for 21 hours at 37° C. […] The SDS-PAGE gel stained with SYPRO™ red protein stain is shown in FIG. 14A and an immunoblot probed with anti-HSA is shown in FIG. 14B.

mPEG5K-DTB-lysozyme: methoxypolyethylene glycol (5 kDa) joined to lysozyme through a methyl-dithiobenzyl urethane linkage
calculated half-life of remaining conjugate upon incubation in cysteine [1]: 0.75 h | calculated half-life of remaining conjugate upon incubation in BSA (bovine serum albumin): 5 h | active lysozyme regenerated from the cysteine cleavage (Micrococcus luteus; 0.6 mM cysteine, 37° C.): 74 µg/mL | active lysozyme concentration after cleavage with BSA (Micrococcus luteus; 4% BSA, 37° C., after 24 hours): approximately 18 μg/mL | active lysozyme after BSA cleavage as percent of that from cysteine cleavage (Micrococcus luteus; 24 hours): 24% | release of lysozyme from the PEG in saline (Micrococcus luteus; saline at 37° C. for up to 24 hours): did not induce release of the lysozyme

mPEG12K-DTB-lysozyme: methoxypolyethylene glycol (12 kDa) joined to lysozyme through a methyl-dithiobenzyl urethane linkage
calculated half-life of remaining conjugate upon incubation in cysteine [1]: 1 h | calculated half-life of remaining conjugate upon incubation in BSA (bovine serum albumin): 6 h | AUC values, cleavable vs noncleavable conjugate [2]: similar | half-lives, cleavable vs noncleavable conjugate [2]: similar

lysozyme: lysozyme as a model therapeutic agent
clearance from the blood stream / circulation lifetime ([2]; 24 hour period): cleared rapidly

Epo: Recombinant, human erythropoietin (EPO, EPREX)
formation of albumin-Epo conjugate (human serum albumin): Neither Epo alone nor the noncleavable mPEG-Epo formed the albumin-Epo conjugate
